Assay results taken from article PMC8451464.

Target: papain (UniProt P00784)
Sequence of UniProt P00784 (P00784 134-345): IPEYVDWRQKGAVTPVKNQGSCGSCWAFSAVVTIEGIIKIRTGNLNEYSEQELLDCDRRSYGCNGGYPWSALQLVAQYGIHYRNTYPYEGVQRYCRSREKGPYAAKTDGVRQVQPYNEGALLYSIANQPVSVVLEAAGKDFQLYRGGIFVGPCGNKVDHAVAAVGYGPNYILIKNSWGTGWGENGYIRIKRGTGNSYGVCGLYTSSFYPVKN

Substance: His-SSPbP53 (natural protein)
- degradation of fluorescein-labeled casein by papain (100 μg/mL) with His-SSPbP53 at 100 and 500 nM, 1 h at room temperature (% reduction of activity): > 50
